Results published in PMC9637774.
Residue numbers refer to the chain shown, from its start.

Assays:
[1] = biological target: T1, Dicer-1 (Dcr-1);Loqs-PB (Loquacious isoform PB) (Drosophila melanogaster;Drosophila …, UniProt Q9VCU9;Q9VJY9 1-2249;1-465, |); test: cryo-EM structure
[2] = biological target: T1, Dicer-1 (Dcr-1);Loqs-PB (Loquacious …); test: cryo-EM structure; remark: listed apart in the source
[3] = biological target: T1, Dicer-1 (Dcr-1);Loqs-PB (Loquacious …); test: cryo-EM structure; remark: listed apart in the source
[4] = biological target: T1, Dicer-1 (Dcr-1);Loqs-PB (Loquacious …); test: competition

T1 sequence (Q9VCU9 whole entry, chain 1 of 2, canonical isoform): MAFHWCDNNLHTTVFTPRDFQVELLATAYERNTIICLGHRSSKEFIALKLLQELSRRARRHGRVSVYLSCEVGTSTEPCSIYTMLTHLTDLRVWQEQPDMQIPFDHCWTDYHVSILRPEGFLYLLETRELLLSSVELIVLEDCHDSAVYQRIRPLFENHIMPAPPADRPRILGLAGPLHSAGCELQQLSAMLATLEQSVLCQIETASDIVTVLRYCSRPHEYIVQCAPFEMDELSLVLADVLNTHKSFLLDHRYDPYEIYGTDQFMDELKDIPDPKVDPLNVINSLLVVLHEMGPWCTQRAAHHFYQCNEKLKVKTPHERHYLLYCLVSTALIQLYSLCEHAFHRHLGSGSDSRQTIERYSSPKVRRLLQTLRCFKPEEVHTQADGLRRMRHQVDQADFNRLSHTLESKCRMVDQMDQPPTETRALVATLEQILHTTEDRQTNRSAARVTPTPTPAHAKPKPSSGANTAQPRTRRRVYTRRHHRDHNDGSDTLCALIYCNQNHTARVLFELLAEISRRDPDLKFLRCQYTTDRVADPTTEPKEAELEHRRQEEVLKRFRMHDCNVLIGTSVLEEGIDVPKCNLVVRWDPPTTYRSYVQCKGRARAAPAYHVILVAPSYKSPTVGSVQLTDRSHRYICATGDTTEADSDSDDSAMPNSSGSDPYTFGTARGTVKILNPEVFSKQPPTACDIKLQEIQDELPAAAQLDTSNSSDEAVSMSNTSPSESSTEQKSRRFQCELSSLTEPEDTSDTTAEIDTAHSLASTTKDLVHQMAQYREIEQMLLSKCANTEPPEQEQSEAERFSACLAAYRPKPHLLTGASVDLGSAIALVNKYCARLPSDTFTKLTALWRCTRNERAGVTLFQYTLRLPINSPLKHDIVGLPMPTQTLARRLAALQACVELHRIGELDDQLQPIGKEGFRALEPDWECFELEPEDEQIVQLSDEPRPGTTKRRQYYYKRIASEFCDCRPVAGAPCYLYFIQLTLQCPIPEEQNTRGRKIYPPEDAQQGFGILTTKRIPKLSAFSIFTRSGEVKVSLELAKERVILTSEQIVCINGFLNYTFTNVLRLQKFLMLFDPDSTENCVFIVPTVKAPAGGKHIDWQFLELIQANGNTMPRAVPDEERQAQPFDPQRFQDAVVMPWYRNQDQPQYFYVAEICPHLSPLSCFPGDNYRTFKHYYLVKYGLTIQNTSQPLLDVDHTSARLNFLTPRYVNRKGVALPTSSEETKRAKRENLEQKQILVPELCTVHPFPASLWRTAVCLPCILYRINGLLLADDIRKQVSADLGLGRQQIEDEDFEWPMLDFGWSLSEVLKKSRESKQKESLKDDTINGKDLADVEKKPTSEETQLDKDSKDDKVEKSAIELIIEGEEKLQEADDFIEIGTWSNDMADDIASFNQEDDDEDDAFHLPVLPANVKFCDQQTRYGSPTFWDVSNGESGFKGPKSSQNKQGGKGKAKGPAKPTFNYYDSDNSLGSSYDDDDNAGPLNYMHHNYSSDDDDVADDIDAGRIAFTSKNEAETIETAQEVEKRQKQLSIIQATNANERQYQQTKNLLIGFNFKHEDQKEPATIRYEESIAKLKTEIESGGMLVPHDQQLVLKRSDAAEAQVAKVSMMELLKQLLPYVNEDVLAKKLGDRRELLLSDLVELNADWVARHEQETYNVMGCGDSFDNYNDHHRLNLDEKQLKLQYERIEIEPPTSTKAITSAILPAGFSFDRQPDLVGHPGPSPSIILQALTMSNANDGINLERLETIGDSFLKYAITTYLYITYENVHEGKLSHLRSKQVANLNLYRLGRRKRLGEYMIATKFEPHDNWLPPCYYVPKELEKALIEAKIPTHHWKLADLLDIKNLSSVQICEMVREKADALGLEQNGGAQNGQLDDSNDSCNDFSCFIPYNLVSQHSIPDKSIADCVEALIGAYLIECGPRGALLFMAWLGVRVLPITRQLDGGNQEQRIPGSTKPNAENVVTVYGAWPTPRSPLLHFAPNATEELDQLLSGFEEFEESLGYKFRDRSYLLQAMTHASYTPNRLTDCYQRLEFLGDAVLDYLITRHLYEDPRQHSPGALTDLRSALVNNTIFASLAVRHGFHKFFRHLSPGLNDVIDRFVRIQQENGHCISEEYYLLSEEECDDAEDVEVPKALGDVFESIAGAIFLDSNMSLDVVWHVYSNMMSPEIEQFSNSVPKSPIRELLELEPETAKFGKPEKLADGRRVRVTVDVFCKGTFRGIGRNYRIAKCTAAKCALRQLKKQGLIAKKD
T1 sequence (Q9VJY9 whole entry, chain 2 of 2, canonical isoform): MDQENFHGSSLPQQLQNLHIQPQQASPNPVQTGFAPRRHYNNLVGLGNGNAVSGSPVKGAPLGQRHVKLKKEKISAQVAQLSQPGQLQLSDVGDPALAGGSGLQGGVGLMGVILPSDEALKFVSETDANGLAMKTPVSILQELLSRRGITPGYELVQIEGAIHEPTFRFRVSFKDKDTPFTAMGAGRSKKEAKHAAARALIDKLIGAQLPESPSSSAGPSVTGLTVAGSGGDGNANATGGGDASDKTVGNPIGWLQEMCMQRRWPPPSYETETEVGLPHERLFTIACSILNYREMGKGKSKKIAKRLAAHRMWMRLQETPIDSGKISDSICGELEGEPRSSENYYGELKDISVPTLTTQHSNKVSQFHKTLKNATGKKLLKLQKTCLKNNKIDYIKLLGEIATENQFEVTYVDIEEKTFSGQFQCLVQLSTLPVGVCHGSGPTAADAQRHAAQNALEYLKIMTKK

B1: model pre-miRNA (structured_RNA)
RNA: UGAGGUAGUAGGUUGUAUAGUAGUAAUUACACAUCAUACUAUACAACCUACUACCUCUCU
modifications: 5' phosphate
- binding result [1]: binds

B2: nicked model pre-miRNA (5' arm cleaved) (structured_RNA)
RNA 1: UGAGGUAGUAGGUUGUAUAGUA
RNA 2: GUAAUUACACAUCAUACUAUACAACCUACUACCUCUCU
modifications: 5' phosphate
- binding result [2]: binds

B3: model miRNA/miRNA* duplex (dsRNA)
RNA 1: UGAGGUAGUAGGUUGUAUAGUA
RNA 2: CUAUACAACCUACUACCUCUCU
modifications: 5' phosphates
- binding result [3]: binds

B4: pre-let-7 (structured_RNA)
RNA: B1 RNA with C47U, C48G, A50G, C54G, C57U
modifications: 5' phosphate
- binding result [4]: binds
